Biological target: FcαRI (CD89) (Homo sapiens, UniProt P24071)
Test: SPR

FcαRI (CD89), sequence (P24071 22-287): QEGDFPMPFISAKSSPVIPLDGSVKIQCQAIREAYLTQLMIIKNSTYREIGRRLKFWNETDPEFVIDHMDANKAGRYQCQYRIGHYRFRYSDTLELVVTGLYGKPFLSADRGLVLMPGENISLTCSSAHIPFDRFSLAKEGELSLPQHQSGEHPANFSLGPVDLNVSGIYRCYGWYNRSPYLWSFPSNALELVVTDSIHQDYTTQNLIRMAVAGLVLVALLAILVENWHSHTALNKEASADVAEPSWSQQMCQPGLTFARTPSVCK

- Kd: ~300 nM
B1: IgA2 (glycoforms) (protein)
chain: ASPTSPKVFPLSLDSTPQDGNVVVACLVQGFFPQEPLSVTWSESGQNVTARNFPPSQDASGDLYTTSSQLTLPATQCPDGKSVTCHVKHYTNSSQDVTVPCRVPPPPPCCHPRLSLHRPALEDLLLGSEANLTCTLTGLRDASGATFTWTPSSGKSAVQGPPERDLCGCYSVSSVLPGCAQPWNHGETFTCTAAHPELKTPLTANITKSGNTFRPEVHLLPPPSEELALNELVTLTCLARGFSPKDVLVRWLQGSQELPREKYLTWASRQEPSQGTTTYAVTSILRVAAEDWKKGETFSCMVGHEALPLAFTQKTIDRMAGSCCVADWQMPPPYVVLDLPQETLEEETPGANLWPTTITFLTLFLLSLFYSTALTVTSVRGPSGKREGPQY
